Data reported in patent US20180353525A1 (SOCPRA SCIENCES SANT ET HUMAINES S E C, published 2018).

Tests used:
[1] = target: T1, receptor for activated C kinase (RACK1), endogenous, HT-1080 cells (human, UniProt P63244 1-317); experiment: cell-based or functional assay
[2] = target: T1, receptor for activated C kinase …; experiment: cell-based or functional assay; remark: listed apart in the source

| Binder | IC50 of doxorubicin, HT1080, MTT viability, C2 0.25 µM, 1% O2 (Experiment 1) [1] | IC50 of doxorubicin, HT1080, MTT viability, C2 0.25 µM, 21% O2 (Experiment 1) [1] | IC50 of doxorubicin, HT1080, MTT viability, C2 5.00 µM, 1% O2 (Experiment 1) [1] | IC50 of doxorubicin, HT1080, MTT viability, C2 5.00 µM, 21% O2 (Experiment 1) [1] | IC50 of doxorubicin, HT1080, MTT viability, C2 0.25 µM, 1% O2 (Experiment 2) [2] | IC50 of doxorubicin, HT1080, MTT viability, C2 0.25 µM, 21% O2 (Experiment 2) [2] | IC50 of doxorubicin, HT1080, MTT viability, C2 20.0 µM, 1% O2 (Experiment 2) [2] | IC50 of doxorubicin, HT1080, MTT viability, C2 20.0 µM, 21% O2 (Experiment 2) [2] | IC50 of doxorubicin, HT1080, MTT viability, C2WY→AA 0.25 µM, 1% O2 (Experiment 1) [1] | IC50 of doxorubicin, HT1080, MTT viability, C2WY→AA 0.25 µM, 21% O2 (Experiment 1) [1] | IC50 of doxorubicin, HT1080, MTT viability, C2WY→AA 5.00 µM, 1% O2 (Experiment 1) [1] | IC50 of doxorubicin, HT1080, MTT viability, C2WY→AA 5.00 µM, 21% O2 (Experiment 1) [1] | IC50 of doxorubicin, HT1080, MTT viability, C2WY→AA 0.25 µM, 1% O2 (Experiment 2) [2] | IC50 of doxorubicin, HT1080, MTT viability, C2WY→AA 0.25 µM, 21% O2 (Experiment 2) [2] | IC50 of doxorubicin, HT1080, MTT viability, C2WY→AA 20.0 µM, 1% O2 (Experiment 2) [2] | IC50 of doxorubicin, HT1080, MTT viability, C2WY→AA 20.0 µM, 21% O2 (Experiment 2) [2] |
| --- | --- | --- | --- | --- | --- | --- | --- | --- | --- | --- | --- | --- | --- | --- | --- | --- |
| RMWYNFDHNY [C2 peptide (RMWYNFDHNY)] | 39.7 nM | 12.2 nM | 39.1 nM | 17.2 nM | 30.6 nM | 11.7 nM | 15.7 nM | 10 nM |  |  |  |  |  |  |  |  |
| RMAANFDHNY [C2WY→AA peptide (RMAANFDHNY)] |  |  |  |  |  |  |  |  | 99.1 nM | 21.3 nM | 76.4 nM | 16.4 nM | 98.9 nM | 12.5 nM | 74.3 nM | 10.9 nM |
